Experimental data published in patent US20240026031A1 (University of California, published 2024).
Values belong to the binder of their own block, whether it stands above or below them.

How the values were obtained:
RNF43 [1] = molecular target: T1, RNF43 (UniProt Q68DV7 24-197, limits assumed); test: affinity for RNF43; method and format not stated; WT anti-RNF43 A5
T1 sequence (looked up): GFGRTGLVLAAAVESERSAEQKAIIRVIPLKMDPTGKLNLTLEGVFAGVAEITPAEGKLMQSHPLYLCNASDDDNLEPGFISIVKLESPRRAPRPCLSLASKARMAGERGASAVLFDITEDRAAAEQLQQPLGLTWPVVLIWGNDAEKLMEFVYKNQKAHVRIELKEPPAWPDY

RNF43 [2] = molecular target: T1, RNF43; test: affinity for RNF43; method and format not stated; S113A mutant of CDR H3
RNF43 [3] = molecular target: T1, RNF43; test: affinity for RNF43; method and format not stated; F115A mutant of CDR H3

Kd (RNF43 [1]): 12.5 nM
B1: anti-RNF43 A5 (WT RNF43 binder) (Fab, V domains shown)
VH: EVQLVESGGGLVQPGGSLRLSCAASGFNIYYYSMHWVRQAPGKGLEWVASISPYYSYTSYADSVKGRFTISADTSKNTAYLQMNSLRAEDTAVYYCARYGYYGWDYHRYSAFDYWGQGTLVTVSS
VL: DIQMTQSPSSLSASVGDRVTITCRASQSVGSALAWYQQKPGKAPKLLIYSASSLYSGVPSRFSGSRSGTDFTLTISSLQPEDFATYYCQQAYPITFGQGTKVEIKR
notes: also called WT RNF43 A5; clone anti-RNF43 A5

Kd (RNF43 [2]): 40 nM
B2: anti-RNF43 A5 alanine mutant S113A (CDR H3) (Fab, V domains shown)
VH: EVQLVESGGGLVQPGGSLRLSCAASGFNIYYYSMHWVRQAPGKGLEWVASISPYYSYTSYADSVKGRFTISADTSKNTAYLQMNSLRAEDTAVYYCARYGYYGWDYHRYAAFDYWGQGTLVTVSS
VL: DIQMTQSPSSLSASVGDRVTITCRASQSVGSALAWYQQKPGKAPKLLIYSASSLYSGVPSRFSGSRSGTDFTLTISSLQPEDFATYYCQQAYPITFGQGTKVEIKR
notes: also called 40 nM

Kd (RNF43 [3]): 125 nM
B3: anti-RNF43 A5 alanine mutant F115A (CDR H3) (Fab, V domains shown)
VH: EVQLVESGGGLVQPGGSLRLSCAASGFNIYYYSMHWVRQAPGKGLEWVASISPYYSYTSYADSVKGRFTISADTSKNTAYLQMNSLRAEDTAVYYCARYGYYGWDYHRYSAADYWGQGTLVTVSS
VL: DIQMTQSPSSLSASVGDRVTITCRASQSVGSALAWYQQKPGKAPKLLIYSASSLYSGVPSRFSGSRSGTDFTLTISSLQPEDFATYYCQQAYPITFGQGTKVEIKR
